These results are taken from PMC7305185 (2020).

B1: pT37 4E-BP2 (protein)
chain: MSSSAGSGHQPSQSRAIPTRTVAISDAAQLPHDYCTTPGGTLFSTAPGGTRIIYDRKFLLDRRNAPMAQAPPCHLPNIPGVTAPGTLIEDSKVEVNNLNNLNNHDRKHAVGDDAQFEMDI
modifications: phospho-Thr37
B2: pT37 pT46 (Two-phospho) 4E-BP2 (protein)
chain: MSSSAGSGHQPSQSRAIPTRTVAISDAAQLPHDYCTTPGGTLFSTTPGGTRIIYDRKFLLDRRNAPMAQAPPCHLPNIPGVTAPGTLIEDSKVEVNNLNNLNNHDRKHAVGDDAQFEMDI
modifications: phospho-Thr37, phospho-Thr46
B3: G39V/G48V Five-phospho 4E-BP2 (protein)
chain: MSSSAGSGHQPSQSRAIPTRTVAISDAAQLPHDYCTTPVGTLFSTTPVGTRIIYDRKFLLDRRNSPMAQTPPCHLPNIPGVTSPGTLIEDSKVEVNNLNNLNNHDRKHAVGDDAQFEMDI
modifications: phospho-Thr37, phospho-Thr46, phospho-Ser65, phospho-Thr70, phospho-Ser83 (legend prints pT36, taken as a typo for pT37)
B4: pT46 4E-BP2 (protein)
chain: MSSSAGSGHQPSQSRAIPTRTVAISDAAQLPHDYCTAPGGTLFSTTPGGTRIIYDRKFLLDRRNAPMAQAPPCHLPNIPGVTAPGTLIEDSKVEVNNLNNLNNHDRKHAVGDDAQFEMDI
modifications: phospho-Thr46
B5: Non-phospho 4E-BP2 (protein)
chain: MSSSAGSGHQPSQSRAIPTRTVAISDAAQLPHDYCTTPGGTLFSTTPGGTRIIYDRKFLLDRRNSPMAQTPPCHLPNIPGVTSPGTLIEDSKVEVNNLNNLNNHDRKHAVGDDAQFEMDI
B6: pS65 pT70 pS83 (T37A/T46A) 4E-BP2 (protein)
chain: MSSSAGSGHQPSQSRAIPTRTVAISDAAQLPHDYCTAPGGTLFSTAPGGTRIIYDRKFLLDRRNSPMAQTPPCHLPNIPGVTSPGTLIEDSKVEVNNLNNLNNHDRKHAVGDDAQFEMDI
modifications: phospho-Ser65, phospho-Thr70, phospho-Ser83

The target of this assay is eukaryotic translation initiation factor 4E (eIF4E) (UniProt P06730 1-217). Nature of the assay: ITC. (Isothermal titration calorimetry measures the heat released or taken up as one component is titrated into another.)
eukaryotic translation initiation factor 4E (eIF4E), sequence (P06730 whole entry): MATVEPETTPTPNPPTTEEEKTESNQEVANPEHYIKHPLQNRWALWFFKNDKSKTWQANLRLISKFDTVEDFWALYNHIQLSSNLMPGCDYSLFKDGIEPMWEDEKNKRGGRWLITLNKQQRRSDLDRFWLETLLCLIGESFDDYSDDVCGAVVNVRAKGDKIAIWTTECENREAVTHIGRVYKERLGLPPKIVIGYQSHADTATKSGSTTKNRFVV
For orientation: Kd means a measure of binding affinity in units of concentration. Molecule B1 returned a dissociation constant (Kd) of 7.2 nM. The value for B2 was 267 nM; that for B3 was 36.1 nM. The result for B4 reads 2.4 nM; that for B5, 3.2 nM; that for B6, 11.3 nM.
